Measured values taken from patent US7888090B2, “Mutants of O6-alkylguanine-DNA alkyltransferase” (Ecole Polytechnique Federale de Lausanne, priority 2004, dated 2011).

Tests used:
[1] = Activity assay with biotinylated O^6-benzylguanine (BG-Bt), Western blotting; format: biochemical; conditions: statement in words
How it was run: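 Purified mutant GST-AGT (0.2 μM) reacted with 1 μM biotinylated O^6-benzylguanine in 50 mM HEPES pH 7.2, 1 mM DTT at room temperature. Time-point aliquots quenched with O^6-benzylguanine in SDS buffer. Biotinylated protein detected by Western blot with neutravidin-peroxidase, band intensity quantified.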

[2] = Expression yield of soluble GST-AGT fusion protein; parameters: species or system E. coli; conditions: comparator not stated
How it was run: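 GST-AGT fusions expressed in E. coli BL21, induced with 0.5 mM IPTG for 3.5 h at 24 °C, and purified from the soluble fraction on glutathione sepharose. Soluble and insoluble fractions compared by SDS-PAGE. Yield taken from A280 relative to wild-type hAGT purified the same way.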

DNA = DNA binding in vitro (co-purified DNA, UV spectroscopy); parameters: species or system E. coli
Method: The interaction with DNA is e.g. quantified by assessing the amount of copurified DNA from E. coli extracts under conditions of low salt and absence of DNase. This is compared between parallel purifications of fusion proteins (e.g. fusions to GST) of wild type (human) and mutant AGT by spectroscopic methods (ratio of absorbance at 260 and 280 nm). Alternatively the interaction of AGT with DNA is measured as the inhibition of AGT reactivity with BG-Cy3 (O^6-(4-aminomethyl-benzyl)-guanine coupled to Cy3) as substrate in the presence of DNA. This approach takes advantage of a marked increase of fluorescence of the Cy3 fluorophore upon reaction of BG-Cy3 with AGT. The reaction kinetics of AGT with a Cy3-labeled benzylguanine derivative is followed by fluorescence intensity measurements over several hours at various concentrations of salmon sperm DNA.
For comparing the DNA binding properties of the protein in vitro, the harvested cells are resuspended, and the GST fusion protein is purified following the same method but in a buffer containing 50 mM phosphate, 0.1 M NaCl, 1 mM DTT. In the dialysed samples, the amount of subsequently co-purified DNA is estimated by UV spectroscopy. Spectra are recorded using a Perkin Elmer Lambda 10. The content of DNA corresponds to the ratio of the extinctions at 280 and 260 nm. […]

[3] = Periplasmic expression / stability under oxidizing conditions; parameters: species or system E. coli
Method: The activities towards AGT substrates are measured after purification without addition of reducing agents such as dithiothreitol or beta-mercaptoethanol. Alternatively, the activities of mutant AGT and wild type human are compared after their export into cellular compartments with oxidising redox potential (e.g. the periplasm of E. coli due to their fusion to appropriate signal sequences. Activity towards AGT substrates under reducing and oxidising conditions is compared by performing the reactions in the presence or absence of reducing agents such as dithiothreitol or beta-mercaptoethanol.
The mutant AGT gene of Example 1 is amplified and cloned as described in Example 1 with the oligonucleotides SEQ ID NO:3, SEQ ID NO:10 and SEQ ID NO:4, SEQ ID NO:9 causing the further mutation Cys62Ala in the gene upon their incorporation by PCR. Protein expression, purification and determination of yield is carried out as described in Example 1. The mutant gene is PCR amplified with the primers SEQ ID NO:11, SEQ ID NO:12 that contain SfiI restriction sites to subclone the gene in fusion to the g3 protein of filamentous phage in the vector pAK100 (Krebber et al., J Immunol Methods 201:35-55, 1997). […] The supernatant is directly subjected to quantification of protein yield via SDS-PAGE and activity assays as described in Example 1.
Stability under oxidizing conditions: The mutant gene is PCR amplified with the primers SEQ ID NO:11 and SEQ ID NO:28 to subclone the gene into pAK100, as described in Example 2. […] To compare the reactivity of […] (Juillerat et al., Chem Biol 10:313-317, 2003) and the mutant, samples are incubated with 1 µM BG-Bt for 50 min, quenched with SDS-Laemmli buffer and analyzed by western blotting using neutravidin peroxidase conjugate (Pierce) or a monoclonal mouse anti-FLAG IgG antibody (M2, Sigma) and a secondary anti-mouse-IgG::HRP conjugate, and Renaissance reagent plus (NEN). […] The anti-FLAG IgG antibody is used to estimate the total amount of soluble AGT protein, whereas neutravidin quantifies the reactive portion of it. […]

B1: Cys62Ala, Lys125Ala, Ala127Thr, Arg128Ala, Asn157Gly, Ser159Glu, truncated after Gly182: particularly preferred hAGT mutant with the listed mutations (protein, UniProt P16455 1-207, looked up, variant C62A K125A A127T R128A N157G S159E del183-207)
Methylated-DNA--protein-cystei …: MDKDCEMKRTTLDSPLGKLELSGCEQGLHEIKLLGKGTSAADAVEVPAPAAVLGGPEPLMQATAWLNAYFHQPEAIEEFPVPALHHPVFQQESFTRQVLWKLLKVVKFGEVISYQQLAALAGNPAATAAVGGAMRGNPVPILIPCHRVVCSSGAVGGYEGGLAVKEWLLAHEGHRLGKPGLG
Q: Which “activity towards O^6-benzylguanine substrates” value [1] does the source give for B1 here?
A: increased reactivity

Q: What about the “expression yield in E. coli” value [2] of the same molecule?
A: increased expression yield

Q: What about the “reduced DNA binding” value (DNA) of the same molecule?
A: reduced DNA binding

Q: And the sensitivity to oxidation [3]?
A: reduced sensitivity to oxidation
